From article PMC5919072
Each block holds one substance with its values, some of them ahead of it.

What was measured:
Assay in all cases: SEC-MALS; static light scattering (MiniDAWN TREOS, three angles) inline with size exclusion on Superdex S75 10/300; 100 mM Na-phosphate pH 7.4, 400 mM NaCl; PfMDH-WT injected at 1.0 mg/ml
[1] = target: PfMDH-V190W, His6-tagged (Plasmodium falciparum)
[2] = target: Wild-type malate dehydrogenase from Plasmodium falciparum (PfMDH-WT), His6-tagged (Plasmodium falciparum)
[3] = target: PfMDH-E18W, His6-tagged (Plasmodium falciparum)
[4] = target: PfMDH-E18Q, His6-tagged (Plasmodium falciparum)

Substance: PfMDH-V190W, His6-tagged (enzyme)
stoichiometry N [1]: 2

stoichiometry N [2]: 4
Substance: Wild-type malate dehydrogenase from Plasmodium falciparum (PfMDH-WT), His6-tagged (enzyme)

Substance: PfMDH-E18W, His6-tagged (enzyme)
stoichiometry N [3]: 2

Substance: PfMDH-E18Q, His6-tagged (enzyme)
stoichiometry N [4]: 4
